# Legend:
# [1] = molecular target: T1, StOFOR2 a-subunit (STK_24350) (Sulfolobus tokodaii, UniProt Q96XT2 1-628); test: crystal structure; StOFOR2 ligand-free (2.1 Å) and soaked with 50 mM pyruvate (2.2 Å); sitting drop, 20 °C, 0.7 M ammonium tartrate dibasic, 0.1 M Tris-HCl pH 8.5; one protomer in the asymmetric unit; settings: both partners purified
# T1 construct: a-subunit of 2-oxoacid:ferredoxin oxidoreductase StOFOR2, STK_24350, Sulfolobus tokodaii; gene amplified from genomic DNA with primers from the start codon to the stop codon; domains III (1a-228a), I (228a-500a), II (500a-627/628a); stk_23000 in pOFORAB was replaced with stk_24350; No tag is mentioned; A selenomethionine-labelled form (E. coli B834 (DE3)) was used for phasing only; also called …
# T1 sequence (looked up): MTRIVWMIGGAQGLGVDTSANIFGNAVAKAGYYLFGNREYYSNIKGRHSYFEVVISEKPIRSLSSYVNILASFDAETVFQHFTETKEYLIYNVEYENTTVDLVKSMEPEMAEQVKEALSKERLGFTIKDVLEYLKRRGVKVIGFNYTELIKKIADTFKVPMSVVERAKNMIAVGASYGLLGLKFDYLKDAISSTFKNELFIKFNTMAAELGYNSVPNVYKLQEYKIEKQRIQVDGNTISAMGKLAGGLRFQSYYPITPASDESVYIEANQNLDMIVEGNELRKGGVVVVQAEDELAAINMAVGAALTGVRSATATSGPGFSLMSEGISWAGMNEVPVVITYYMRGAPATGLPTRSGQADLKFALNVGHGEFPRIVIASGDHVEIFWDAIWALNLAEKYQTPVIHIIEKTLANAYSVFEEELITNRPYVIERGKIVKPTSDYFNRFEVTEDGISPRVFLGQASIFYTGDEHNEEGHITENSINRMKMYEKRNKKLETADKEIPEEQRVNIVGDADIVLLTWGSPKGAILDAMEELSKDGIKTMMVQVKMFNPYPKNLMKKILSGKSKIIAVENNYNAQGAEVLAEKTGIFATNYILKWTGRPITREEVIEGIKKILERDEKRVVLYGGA
# [2] = molecular target: the molecule itself; test: as above
# [3] = molecular target: the molecule itself; test: crystal structure; StOFOR1 co-crystallised with 50 mM 2-oxobutyrate and 1 mM CoA; sitting drop, 25 °C, 15% PEG3350, 0.1 M Tris-HCl pH 8.5, 0.1 M NaBr; 2.5 Å; two protomers in the asymmetric unit
binder,measurement,setting,value
"StOFOR2 b-subunit (STK_24330) (natural protein, Sulfolobus tokodaii, UniProt Q96XT4 1-304, looked up, b-subunit of 2-oxoacid:ferredoxin oxidoreductase StOFOR2, STK_24330, Sulfolobus tokodaii; gene amplified from genomic DNA with primers from the start codon to the stop codon; domain VI (1b-305b); stk_22980 in pOFORAB was replaced with stk_24330; No tag is mentioned; Holds the [4Fe-4S] cluster; also called b-subunit of StOFOR2; source: E. coli C43 (DE3), expressed with the a-subunit, purified …) MVERKPVFVDWCPGCGDFGILRAEEMAIRELGINPKSVVIVSGIGCSGKIPHFMNLPISGVHTLHGRSIAFATGIKLSNPSLEVIVNVGDGDGLGIGMGHFVHLGRRNIDIAVLVHNNGVYGLTKGQASPTLHRGEKTKSLPKPNIMDAVNPLAVALAAGYTFVARGYAYDVMHLKELIKKAILHKGSALVDILQPCPTYNDINTKEWYDKRVYKLDNVPGWDPVVRKEEEAQKKFEQAIMKSYEWGEKIPIGIFYQNELVPTFEDRLTSNIPNYREYYPAKQQIEINGISTTKIDELIKAKRI",binding result,[1],binds
"StOFOR2 protomer (heterodimer of a-subunit STK_24350 and b-subunit STK_24330) (complex, Sulfolobus tokodaii, a-subunit of StOFOR2, STK_24350, Sulfolobus tokodaii; primers from the start codon to the stop codon; as the chain of m3; b-subunit of StOFOR2, STK_24330, Sulfolobus tokodaii; as the chain of m4; One protomer is the pair of a- and b-subunits that holds one TPP; Two crystallographically identical protomers form the (ab)2 enzyme; Cofactors: TPP, Mg2+, [4Fe-4S]; also called STK_24350/STK_24330; …) chain 1: MTRIVWMIGGAQGLGVDTSANIFGNAVAKAGYYLFGNREYYSNIKGRHSYFEVVISEKPIRSLSSYVNILASFDAETVFQHFTETKEYLIYNVEYENTTVDLVKSMEPEMAEQVKEALSKERLGFTIKDVLEYLKRRGVKVIGFNYTELIKKIADTFKVPMSVVERAKNMIAVGASYGLLGLKFDYLKDAISSTFKNELFIKFNTMAAELGYNSVPNVYKLQEYKIEKQRIQVDGNTISAMGKLAGGLRFQSYYPITPASDESVYIEANQNLDMIVEGNELRKGGVVVVQAEDELAAINMAVGAALTGVRSATATSGPGFSLMSEGISWAGMNEVPVVITYYMRGAPATGLPTRSGQADLKFALNVGHGEFPRIVIASGDHVEIFWDAIWALNLAEKYQTPVIHIIEKTLANAYSVFEEELITNRPYVIERGKIVKPTSDYFNRFEVTEDGISPRVFLGQASIFYTGDEHNEEGHITENSINRMKMYEKRNKKLETADKEIPEEQRVNIVGDADIVLLTWGSPKGAILDAMEELSKDGIKTMMVQVKMFNPYPKNLMKKILSGKSKIIAVENNYNAQGAEVLAEKTGIFATNYILKWTGRPITREEVIEGIKKILERDEKRVVLYGGA chain 2: MVERKPVFVDWCPGCGDFGILRAEEMAIRELGINPKSVVIVSGIGCSGKIPHFMNLPISGVHTLHGRSIAFATGIKLSNPSLEVIVNVGDGDGLGIGMGHFVHLGRRNIDIAVLVHNNGVYGLTKGQASPTLHRGEKTKSLPKPNIMDAVNPLAVALAAGYTFVARGYAYDVMHLKELIKKAILHKGSALVDILQPCPTYNDINTKEWYDKRVYKLDNVPGWDPVVRKEEEAQKKFEQAIMKSYEWGEKIPIGIFYQNELVPTFEDRLTSNIPNYREYYPAKQQIEINGISTTKIDELIKAKRI",stoichiometry N,[2],2
"StOFOR1 protomer (heterodimer of a-subunit STK_23000 and b-subunit STK_22980) (complex, Sulfolobus tokodaii strain 7, a-subunit of StOFOR1, STK_23000, Sulfolobus tokodaii strain 7, 70 kDa; as the chain of m1; b-subunit of StOFOR1, STK_22980, Sulfolobus tokodaii strain 7, 34 kDa; as the chain of m2; One protomer is the pair of a- and b-subunits that holds one TPP; Two protomers form the (ab)2 enzyme; Cofactors: TPP, Mg2+, [4Fe-4S]; also called STK_23000/STK_22980; source: E. coli C43 (DE3), both subunits …) chain 1: MRLSWVIGGAQGTGIDTAANIFGNAVASAGYYIYGNREYYSNIKGRHSYFSLTISDKRVRSNTQKIDILVSFDAETVFQHFYDVKDILIYNKAVETTKIDAVQSMEPELAERIKDFLTKQGYETTVKGALEYASKNNVTLIPVNYDEIAKKVADEMKVPLSVTERVKNIVGITISYKLLGLDVNYLIEAINSTFKQDLYRKMNELAVKDSYDIVESRYNLKPSSKERRRFWLDGNTAVAIGKIYGGVRFQSYYPITPASDESVYIEAHQDVLMEDPITGDKKKGTIVVVQAEDELAAINMAIGAALTGVRAATATSGPGFSLMVEGLGWAGMNEVPVVITYYIRGGPSTGLPTRTAQSDLIFPIFAGHGEFPKIVLASGDHAEAFKDAIWALNLAEKYQTPVIHLVEKTLANSYSTIPYEELELDKLKAERGKIVESGDISYKRFKFTEDGISPRAFLGKATMYYTGDEHNEEGHISEDVVNRTMMYEKRMKKLEVADKEIPEESRVKIYGDLNSRNLIITWGSPTGVLRDILEESNFDFTLLQIRMFSPFPKNLVSKLMEGRDKIITVEGNYLAQTSLLVKMYTGKDVTNSILKWNGRPFLRDELEEALIKVIKDGEKRVVLNGGI chain 2: PQWNDWCPGCGNFGILNAEQQAIVELGVDTKNVVVVSGIGCSGKIPHFFRTPISGVHTLHGRAIAFATGIKLSNPDLVVIVNGGDGDLLGIGAGHFVAAGRRNVDMVVILHDNGVYGLTKGQASPTLKRGEKPKSLPRPNINDAVNPIALAISSGYTFVARGYAYDVKHLKELIKSAIKHKGLALIDVLQPCPTYNDINTKEWYDKRIYKLDTLPDWDPVVKKPEEVNEKIKRAIDKSLEWGDRIPIGIFYQNELVPSYEERIKANSPAYLDYTPAKQLIEKEGKLTTIIDPLLKEREVD",stoichiometry N,[3],2

# Source: article PMC5020499, “Crystal structures of archaeal 2-oxoacid:ferredoxin oxidoreductases from Sulfolobus tokodaii” (Scientific Reports, 2016)
